Key:
[1] = Heparin binding assay (salt elution from heparin-Sepharose/agarose); conditions: for NaCl concentration of elution from heparin-Sepharose/agarose: increasing salt concentrations
αllbβ3 = target: T1, αllbβ3 (Homo sapiens, UniProt P05106+P08514); test: Solid-phase binding assay with purified integrin; conditions: for Kd: RGD-affinity purified αllbβ3, immobilized protein, read-out: half-saturation of activated αllbβ3 binding
T1 construct: from tissue; host or cells: outdated human platelets
Protocol: In these experiments, activated and unactivated αllbβ3 were purified from platelet lysates. Activated αllbβ3 was purified by RGD affinity chromatography, as described (Knezevic et al., J. Biol. Chem. 271:16416-16421 [1996]). Briefly, outdated human platelets were isolated by differential centrifugation and solubilized in lysis buffer (10 mM HEPES, pH 7.4, 0.15 M NaCl, containing 1 mM CaCl2, 1 mM MgCl2 100 μM leupeptin, 1 mM phenylmethylsulfonyl fluoride, 10 mM-ethylmaleimide, and 50 mM octylglucoside). The octylglucoside extract was incubated with 1 ml GRGDSPK-coupled Sepharose 4B overnight at 4° C. After washing with 15 ml column buffer (same as lysis buffer except it contained 25 mM octylglucoside), bound αllbβ3 was eluted with 1.7 mM H12 (2 ml) in column buffer. The H12 eluate was applied to a Sephacryl S-300 High Resolution column (1.5×95 cm), and αllbβ3 was eluted with 10 mM HEPES, pH 7.4, 0.15 M NaCl, 1 mM CaCl2, 1 mM MgCl2 and 25 mM octylglucoside.
Unactivated αllbβ3 was isolated by the method of Fitzgerald et al., Anal. Biochem. 151:169-177 (1985), with slight modifications. The flow-through fraction of the GRGDSPK-Sepharose column was applied to a concanavalin A-Sepharose 4B column (1×20 cm). Unbound proteins were washed with 50 ml column buffer, and bound αllbβ3 was then eluted with 100 mM mannose dissolved in column buffer. Fractions containing αllbβ3 were further purified on a Sephacryl S-300 High Resolution column
To perform the solid-phase binding assay, purified αllbβ3 was added to wells coated with either Cyr61 or Fisp12 (mCTGF) in the presence or absence of inhibitors and binding was allowed to proceed for 3 hours at 37° C. Unbound receptor was removed and the wells wee washed twice with HEPES-Tyrode's Buffer. The binding of purified αllbβ3 to Cyr61 or Fisp12/mCTGF immobilized onto microtiter wells was detected with ^125I-mAb15.

NIH 3T3 fibroblasts = test: Fisp12/Cyr61 cell attachment and spreading, NIH 3T3; format: cell-based, mouse; conditions: for cell attachment to coated dishes: coating 20 μg/ml, NIH 3T3 fibroblasts
Protocol: Another embodiment of the invention is directed to the use of Cyr61 to mediate cellular attachment to the extracellular matrix. Induction of cellular adhesion was investigated using murine Cyr61, fibronectin, and bovine serum albumin (BSA). Immunological 96-well plates (Falcon brand) were coated with 50 μl of 0.1% BSA in PBS at 4° C. in the presence of 0-30 μg/ml concentrations of murine Cyr61 or fibronectin. After two hours exposure to the coating solution, non-diluted immune or pre-immune antisera (30 μl/well), or affinity-purified anti-Cyr61 antibodies were added. For some wells, the coating mixture was adjusted to 10 mM DTT or 100 mM HCl. After 16 hours incubation, the coating solution was removed and the well surface was blocked with 1% BSA in phosphate-buffered saline (PBS) for 1 hour at room temperature. HUVE cells were plated in Ham's complete F12K medium [GIBCO-BRL, Inc.; Ham, Proc. Natl. Acacd. Sci. (USA) 53:786 (1965)] at 5×10^3-10^4 cells/well. Cycloheximide was added to 100 μg/ml immediately before plating and monensin was added to 1 μM 14 hours before plating. After a 2-hour incubation at 37° C., the wells were washed with PBS and attached cells were fixed and stained with methylene blue. The attachment efficiency was determined by quantitative dye extraction and measurement of the extract absorbance at 650 nm. Oliver et al., J. Cell. Sci. 92:513-518 (1989).
The capacity of Fisp12 to affect cell adhesion was also investigated. Fisp12 cell attachment assays were performed essentially as described (Oliver et al., [1989]). 96-well immunological plates were coated for 16 hours at 4° C. with 20 μg/ml Cyr61, Fisp12 or fibronectim (Gibco BRL) in PBS containing 0.1 mg/ml BSA and blocked with 10 mg/ml BSA for 1 hour at room temperature. HUVE cells were plated at 10^4 cells/well in F12K media with 10% FBS (Hyclone Laboratories, Inc., Logan, Utah); NIH 3T3 fibroblasts were plated at 3×10^4 cells/well and Mv1Lu cells were plated at 5×10^4 cells/well in minimal essential medium (MEM) with 10% FBS. After 1 hour incubation cells were fixed, stained with methylene blue and quantified as described (Oliver et al., [1989]). Cell spreading was examined on cells plated on 100 mm polystyrene petri dishes coated with 2.5 ml of a 20 μg/ml solution of Cyr61, Fisp12 or fibronectin. 10^7 cells were plated on each dish and cell spreading was analyzed 90 minutes after plating by microscopy at 100× magnification.

[2] = system: mink lung epithelial cells (Mv1lu, CCL64); test: TGF-β inhibition of DNA synthesis; format: cell-based; conditions: 2 μg/ml, 18 hours
Protocol: DNA synthesis for HUVE cells and NIH 3T3 fibroblasts was measured by thymidine incorporation as described previously (Kireeva et al., [1996]) with minor modifications. HUVE cells were grown in 24-well plates to a subconfluent state, serum-starved for 24 hours and treated with F12K medium containing 10% fetal bovine serum (FBS), 1 μCi/ml [^3H]-thymidine and 10 ng/ml basic Fibroblast Growth Factor (bFGF) (Gibco-BRL, Inc.) with various concentrations of Cyr61 and Fisp12 as indicated. NIH 3T3 fibroblasts were grown to subconlfluence, serum-starved for 48 hours, and treated with Minimal Essential Medium (MEM) containing 0.5% FBS, 1 μCi/ml [^3H]-thymidine, bFGF and various concentrations of Cyr61 or Fisp12. Thymidine incorporation into the trichloroacetic acid-insoluble fraction was determined after 24 hour incubation. Logarithmically grown mink lung epithelial cells (Mv1lu, CCL64) were treated with various concentrations of TGF-β1 (Gibco-BRL) and 2 μg/ml of Cyr61 or Fisp12 for 18 hours; [^3H]-thymidine was then added to 1 μCi/ml for 2 hours. Thymidine incorporation was determnined as described above.

Row | Molecule | NaCl concentration of elution from heparin-Sepharose/agarose [1] | binding of activated versus unactivated αllbβ3 (αllbβ3) | Kd (αllbβ3) | cell attachment to coated dishes (NIH 3T3 fibroblasts) | attachment of NIH 3T3 cells to murine Cyr61-coated surfaces (NIH 3T3 fibroblasts; method of b177) | effect on TGF-β inhibition of DNA synthesis [2] | peak elution from heparin agarose ([1]; metabolically labeled cell lysates) | cell spreading (NIH 3T3 fibroblasts; dishes coated with 20 μg/ml, 90 minutes)
1 | Cyr61: Cysteine-rich ECM signaling protein; murine sequence SEQ ID NO:2, recombinant from Baculovirus-infected Sf9 cells (protein, listed as Mus musculus) MSSSTFRTLAVAVTLLHLTRLALSTCPAACHCPLEAPKCAPGVGLVRDGCGCCKVCAKQLNEDCSKTQPCDHTKGLECNFGASSTALKGICRAQSEGRPCEYNSRIYQNGESFQPNCKHQCTCIDGAVGCIPLCPQELSLPNLGCPNPRLVKVSGQCCEEWVCDEDSIKDSLDDQDDLLGLDASEVELTRNNELIAIGKGSSLKRLPVFGTEPRVLFNPLHAHGQKCIVQTTSWSQCSKSCGTGISTRVTNDNPECRLVKETRICEVRPCGQPVYSSLKKGKKCSKTKKSPEPVRFTYAGCSSVKKYRPKYCGSCVDGRCCTPLQTRTVKMRFRCEDGEMFSKNVMMIQSCKCNYNCPHPNEASFRLYSLFNDIHKFRD | 0.8-1.0 M NaCl | greater binding of activated versus unactivated | 25 nM | promoted the attachment | promoted the attachment of NIH 3T3 cells, though less effectively than fibronectin | enhanced the ability of TGF-β to inhibit DNA synthesis |  | 
2 | Fisp12: Cysteine-rich murine protein, SEQ ID NO:6, mouse ortholog of CTGF (protein, listed as Mus musculus) MLASVAGPISLALVLLALCTRPATGQDCSAQCQCAAEAAPHCPAGVSLVLDGCGCCRVCAKQLGELCTERDPCDPHKGLFCDFGSPANRKIGVCTAKDGAPCVFGGSVYRSGESFQSSCKYQCTCLDGAVGCVPLCSMDVRLPSPDCPFPRRVKLPGKCCKEWVCDEPKDRTAVGPALAAYRLEDTFGPDPTMMRANCLVQTTEWSACSKTCGMGISTRVTNDNTFCRLEKQSRLCMVRPCEADLEENIKKGKKCIRTPKIAKPVKFELSGCTSVKTYRAKFCGVCTDGRCCTPHRTTTLPVEFKCPDGEIMKKNMMFIKTCACHYNCPGDNDIFESLYYRKMYGDMA | 0.2 to 0.6 M NaCl | greater binding of activated versus unactivated | 15 nM | promoted the attachment |  | enhanced the ability of TGF-β to inhibit DNA synthesis | 0.4 M NaCl | promotes cell spreading

Source: patent publication US7521540B2, “CYR61 compositions and methods” (Munin Corporation, priority 1996, dated 2009)
